Measured values taken from paper PMC2978108.

Target: recombinant GRD domain of GAPA (37 kDa GRD polypeptide) (D. discoideum)
Assay: SEC; analytical gel filtration on Sephadex G75 (SMART system) of the purified GRD domain; OD280

stoichiometry N: 3
Substance: recombinant GRD domain of GAPA (37 kDa GRD polypeptide) (domain or fragment)
